Source: patent US20140087995A1 (published 2014)
Numbered stars: 1 amine (or outer) side, 2 acyl side, 3 side chain; on linkers, the order of the positions; unused ones are H or OH. Bridge positions count the residues as written; N and C are the ends. * marks the point of attachment. C20 diacid = O=C(O)CCCCCCCCCCCCCCCCCCC(=O)*; γGlu = O=C(O)[C@H](CCC(=O)[*:2])N[*:1]

T1: human amylin receptor (amylin 3(a) receptor: human calcitonin receptor plus RAMP-3) (human, UniProt P30988 25-474; O60896 24-148, limits assumed)
T1 sequence (looked up) 1: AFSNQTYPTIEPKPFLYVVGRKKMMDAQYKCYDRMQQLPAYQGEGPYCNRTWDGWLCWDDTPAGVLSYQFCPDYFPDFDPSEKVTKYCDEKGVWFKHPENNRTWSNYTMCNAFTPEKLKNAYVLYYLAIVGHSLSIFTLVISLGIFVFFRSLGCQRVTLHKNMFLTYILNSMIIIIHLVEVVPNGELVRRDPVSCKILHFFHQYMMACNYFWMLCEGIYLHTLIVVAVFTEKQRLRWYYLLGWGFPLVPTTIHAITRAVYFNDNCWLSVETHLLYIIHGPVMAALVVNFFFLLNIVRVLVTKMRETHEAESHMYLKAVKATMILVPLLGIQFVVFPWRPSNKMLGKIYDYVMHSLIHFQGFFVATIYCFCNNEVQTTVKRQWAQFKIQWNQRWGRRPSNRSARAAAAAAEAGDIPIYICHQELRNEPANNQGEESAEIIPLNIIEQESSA
T1 sequence (looked up) 2: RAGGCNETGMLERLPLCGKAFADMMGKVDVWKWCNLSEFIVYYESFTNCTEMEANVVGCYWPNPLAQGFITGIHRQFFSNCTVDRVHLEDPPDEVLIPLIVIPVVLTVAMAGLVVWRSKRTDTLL

T2: human calcitonin receptor (human, UniProt P30988 25-474)
T2 sequence (looked up): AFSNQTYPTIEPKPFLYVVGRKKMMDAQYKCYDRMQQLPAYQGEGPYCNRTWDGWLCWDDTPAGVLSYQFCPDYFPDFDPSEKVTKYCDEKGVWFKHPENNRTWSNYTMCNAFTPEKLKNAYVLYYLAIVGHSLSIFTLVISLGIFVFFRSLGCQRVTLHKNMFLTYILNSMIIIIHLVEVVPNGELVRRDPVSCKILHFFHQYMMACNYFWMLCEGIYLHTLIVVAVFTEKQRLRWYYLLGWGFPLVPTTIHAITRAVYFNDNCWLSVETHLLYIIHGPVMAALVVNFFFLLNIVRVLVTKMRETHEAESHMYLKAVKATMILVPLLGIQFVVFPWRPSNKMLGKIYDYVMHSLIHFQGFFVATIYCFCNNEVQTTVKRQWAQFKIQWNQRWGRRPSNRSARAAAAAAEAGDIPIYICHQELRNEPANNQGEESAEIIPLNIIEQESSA


Experiments:
[1] = target: T1, human amylin receptor (amylin 3(a) …); experiment: cell-based or functional assay
[2] = target: T2, human calcitonin receptor; experiment: cell-based or functional assay
[3] = target: T1, human amylin receptor (amylin 3(a) …); experiment: SPA competition binding, membranes of Amylin 3(a)/CRE-luc BHK cells, displacement of 125I-rat amylin (Assay V)
Protocol: The binding assay was performed using scintillation proximity assay (SPA) beads (RPNQ0001) from PerkinElmer and cell membranes from the Amylin 3(a)/CRE-luc cells (as described in Assay (II)) were used. Membranes were prepared in the following way; the cells were rinsed with PBS and incubated with Versene for approximately 5 min before harvesting. The cells were flushed with PBS and the cell-suspension was centrifuged for 5 min at 1000 rpm. Cells were homogenized (ultrathurrax) in a buffer containing 20 mM Na-HEPES and 10 mM EDTA (pH 7.4) and centrifuged at 20.000 rpm for 15 min. The resulting pellet was resuspended, homogenized and centrifuged (20.000 rpm, 15 min) in a buffer containing 20 mM Na-HEPES and 0.1 mM EDTA (pH 7.4, buffer 2). The resulting pellet was resuspended in buffer 2 and protein concentration was measured (BCA protein Assay, Pierce). The homogenate was kept cold during the whole procedure. The membranes were kept at −80° C. until use. The assay was performed in a 384 well Optiplate (PerkinElmer) in a total volume of 40 ul. Membranes were mixed with SPA beads. Final concentration of membranes 35 ng/μL final and SPA beads was 0.05 mg/well. Test-compounds were dissolved in DMSO and further diluted in assay buffer (50 mM Hepes, pH 7.4, 1 mM CaCl2, 5 mM MgCl₂, 0.1% OA and 0.02% Tween20). […] The final mixture was incubated with shaking at 400 rpm for 120 min at 25° C. prior to centrifugation (1500 rpm, 10 min). Samples were analyzed on TopCounter™ (Packard). The IC₅₀ was calculated using (one site binding competition analysis) GraphPad Prism5 as a measure of receptor affinity.

| Binder | hAmylin-R funct. EC50 [1] | Ratio hCT/hAmylin funct. (hCTR EC50 against hAmylin-R EC50) [2] | hCTR funct. EC50 [2] | IC50 [3] |
| --- | --- | --- | --- | --- |
| {C20 diacid-γGlu}-KCNTATCATQRLAEFLRHSSPNFGAIPSPTNVGSNTY-NH2 (disulfide 2-7; SMILES CC[C@H](C)[C@H](NC(=O)[C@H](C)NC(=O)CNC(=O)[C@H](Cc1ccccc1)NC(=O)[C@H](CC(N)=O)NC(=O)[C@@H]1CCCN1C(=O)[C@H](CO)NC(=O)[C@H](CO)NC(=O)[C@H](Cc1c[nH]cn1)NC(=O)[C@H](CCCNC(=N)N)NC(=O)[C@H](CC(C)C)NC(=O)[C@H](Cc1ccccc1)NC(=O)[C@H](CCC(=O)O)NC(=O)[C@H](C)NC(=O)[C@H](CC(C)C)NC(=O)[C@H](CCCNC(=N)N)NC(=O)[C@H](CCC(N)=O)NC(=O)[C@@H](NC(=O)[C@H](C)NC(=O)[C@@H]1CSSC[C@H](NC(=O)[C@H](CCCCN)NC(=O)CC[C@H](NC(=O)CCCCCCCCCCCCCCCCCCC(=O)O)C(=O)O)C(=O)N[C@@H](CC(N)=O)C(=O)N[C@@H]([C@@H](C)O)C(=O)N[C@@H](C)C(=O)N[C@@H]([C@@H](C)O)C(=O)N1)[C@@H](C)O)C(=O)N1CCC[C@H]1C(=O)N[C@@H](CO)C(=O)N1CCC[C@H]1C(=O)N[C@H](C(=O)N[C@@H](CC(N)=O)C(=O)N[C@H](C(=O)NCC(=O)N[C@@H](CO)C(=O)N[C@@H](CC(N)=O)C(=O)N[C@H](C(=O)N[C@@H](Cc1ccc(O)cc1)C(N)=O)[C@@H](C)O)C(C)C)[C@@H](C)O, also called compound 37) | 92 pM | 4 | 372 pM | 970 pM |
| {C20 diacid-γGlu-γGlu}-KCNTATCATQRLAEFLRHSSPNFGAIPSSTNVGSNTP-NH2 (disulfide 2-7; SMILES CC[C@H](C)[C@H](NC(=O)[C@H](C)NC(=O)CNC(=O)[C@H](Cc1ccccc1)NC(=O)[C@H](CC(N)=O)NC(=O)[C@@H]1CCCN1C(=O)[C@H](CO)NC(=O)[C@H](CO)NC(=O)[C@H](Cc1c[nH]cn1)NC(=O)[C@H](CCCNC(=N)N)NC(=O)[C@H](CC(C)C)NC(=O)[C@H](Cc1ccccc1)NC(=O)[C@H](CCC(=O)O)NC(=O)[C@H](C)NC(=O)[C@H](CC(C)C)NC(=O)[C@H](CCCNC(=N)N)NC(=O)[C@H](CCC(N)=O)NC(=O)[C@@H](NC(=O)[C@H](C)NC(=O)[C@@H]1CSSC[C@H](NC(=O)[C@H](CCCCN)NC(=O)CC[C@H](NC(=O)CC[C@H](NC(=O)CCCCCCCCCCCCCCCCCCC(=O)O)C(=O)O)C(=O)O)C(=O)N[C@@H](CC(N)=O)C(=O)N[C@@H]([C@@H](C)O)C(=O)N[C@@H](C)C(=O)N[C@@H]([C@@H](C)O)C(=O)N1)[C@@H](C)O)C(=O)N1CCC[C@H]1C(=O)N[C@@H](CO)C(=O)N[C@@H](CO)C(=O)N[C@H](C(=O)N[C@@H](CC(N)=O)C(=O)N[C@H](C(=O)NCC(=O)N[C@@H](CO)C(=O)N[C@@H](CC(N)=O)C(=O)N[C@H](C(=O)N1CCC[C@H]1C(N)=O)[C@@H](C)O)C(C)C)[C@@H](C)O, also called compound 14) | 146 pM | 1.6 | 238 pM | 196 pM |
| {C20 diacid-γGlu}-KCNTATCATQRLAEFLRHSSPNFGAIPSSTNVGSETY-NH2 (disulfide 2-7; SMILES CC[C@H](C)[C@H](NC(=O)[C@H](C)NC(=O)CNC(=O)[C@H](Cc1ccccc1)NC(=O)[C@H](CC(N)=O)NC(=O)[C@@H]1CCCN1C(=O)[C@H](CO)NC(=O)[C@H](CO)NC(=O)[C@H](Cc1c[nH]cn1)NC(=O)[C@H](CCCNC(=N)N)NC(=O)[C@H](CC(C)C)NC(=O)[C@H](Cc1ccccc1)NC(=O)[C@H](CCC(=O)O)NC(=O)[C@H](C)NC(=O)[C@H](CC(C)C)NC(=O)[C@H](CCCNC(=N)N)NC(=O)[C@H](CCC(N)=O)NC(=O)[C@@H](NC(=O)[C@H](C)NC(=O)[C@@H]1CSSC[C@H](NC(=O)[C@H](CCCCN)NC(=O)CC[C@H](NC(=O)CCCCCCCCCCCCCCCCCCC(=O)O)C(=O)O)C(=O)N[C@@H](CC(N)=O)C(=O)N[C@@H]([C@@H](C)O)C(=O)N[C@@H](C)C(=O)N[C@@H]([C@@H](C)O)C(=O)N1)[C@@H](C)O)C(=O)N1CCC[C@H]1C(=O)N[C@@H](CO)C(=O)N[C@@H](CO)C(=O)N[C@H](C(=O)N[C@@H](CC(N)=O)C(=O)N[C@H](C(=O)NCC(=O)N[C@@H](CO)C(=O)N[C@@H](CCC(=O)O)C(=O)N[C@H](C(=O)N[C@@H](Cc1ccc(O)cc1)C(N)=O)[C@@H](C)O)C(C)C)[C@@H](C)O, also called compound 22) | 270 pM | 3.8 | 1030 pM | 794 pM |
| {C20 diacid-γGlu}-KCNTATCATQRLAEFLRHSSPNFGAIPSSTNVGSNTP-NH2 (disulfide 2-7; SMILES CC[C@H](C)[C@H](NC(=O)[C@H](C)NC(=O)CNC(=O)[C@H](Cc1ccccc1)NC(=O)[C@H](CC(N)=O)NC(=O)[C@@H]1CCCN1C(=O)[C@H](CO)NC(=O)[C@H](CO)NC(=O)[C@H](Cc1c[nH]cn1)NC(=O)[C@H](CCCNC(=N)N)NC(=O)[C@H](CC(C)C)NC(=O)[C@H](Cc1ccccc1)NC(=O)[C@H](CCC(=O)O)NC(=O)[C@H](C)NC(=O)[C@H](CC(C)C)NC(=O)[C@H](CCCNC(=N)N)NC(=O)[C@H](CCC(N)=O)NC(=O)[C@@H](NC(=O)[C@H](C)NC(=O)[C@@H]1CSSC[C@H](NC(=O)[C@H](CCCCN)NC(=O)CC[C@H](NC(=O)CCCCCCCCCCCCCCCCCCC(=O)O)C(=O)O)C(=O)N[C@@H](CC(N)=O)C(=O)N[C@@H]([C@@H](C)O)C(=O)N[C@@H](C)C(=O)N[C@@H]([C@@H](C)O)C(=O)N1)[C@@H](C)O)C(=O)N1CCC[C@H]1C(=O)N[C@@H](CO)C(=O)N[C@@H](CO)C(=O)N[C@H](C(=O)N[C@@H](CC(N)=O)C(=O)N[C@H](C(=O)NCC(=O)N[C@@H](CO)C(=O)N[C@@H](CC(N)=O)C(=O)N[C@H](C(=O)N1CCC[C@H]1C(N)=O)[C@@H](C)O)C(C)C)[C@@H](C)O, also called compound 8) | 82 pM | 1.1 | 87 pM | 72 pM |
| {C20 diacid-γGlu}-KCNTATCATQRLAEFLRHSSPNFGAIPSSTNVGPNTY-NH2 (disulfide 2-7; SMILES CC[C@H](C)[C@H](NC(=O)[C@H](C)NC(=O)CNC(=O)[C@H](Cc1ccccc1)NC(=O)[C@H](CC(N)=O)NC(=O)[C@@H]1CCCN1C(=O)[C@H](CO)NC(=O)[C@H](CO)NC(=O)[C@H](Cc1c[nH]cn1)NC(=O)[C@H](CCCNC(=N)N)NC(=O)[C@H](CC(C)C)NC(=O)[C@H](Cc1ccccc1)NC(=O)[C@H](CCC(=O)O)NC(=O)[C@H](C)NC(=O)[C@H](CC(C)C)NC(=O)[C@H](CCCNC(=N)N)NC(=O)[C@H](CCC(N)=O)NC(=O)[C@@H](NC(=O)[C@H](C)NC(=O)[C@@H]1CSSC[C@H](NC(=O)[C@H](CCCCN)NC(=O)CC[C@H](NC(=O)CCCCCCCCCCCCCCCCCCC(=O)O)C(=O)O)C(=O)N[C@@H](CC(N)=O)C(=O)N[C@@H]([C@@H](C)O)C(=O)N[C@@H](C)C(=O)N[C@@H]([C@@H](C)O)C(=O)N1)[C@@H](C)O)C(=O)N1CCC[C@H]1C(=O)N[C@@H](CO)C(=O)N[C@@H](CO)C(=O)N[C@H](C(=O)N[C@@H](CC(N)=O)C(=O)N[C@H](C(=O)NCC(=O)N1CCC[C@H]1C(=O)N[C@@H](CC(N)=O)C(=O)N[C@H](C(=O)N[C@@H](Cc1ccc(O)cc1)C(N)=O)[C@@H](C)O)C(C)C)[C@@H](C)O, also called compound 32) | 50 pM | 6.6 | 327 pM | 100 pM |
